A short description of this series: soluble on expression in E. coli; label from the status in PepcDB or PDB records.
“MYLPAHFAETRPEELARIIRAHPLGMLVTQDAQGLDADHLPFEFDPDAGPHGTLIAHVARANTLWQRCPDGSAVMVVFRGAEGYISPNWYPSKHEAHRQVPTWNYEVVHAHGTLAVRDDERFVRGVVARLTRRHEAGEPRPWKMTDSTPEYIDSMLRNIVGIEVAITSLVGKRKLSQNKDERDRLGAVQALQARGQDTLAQSMARAELEHHHHHH”: the “soluble on expression in E. coli” value was “not soluble”.

As for “TGAGTPSQGKKNTTTHTKCRRCGEKSYHTKKKVCSSCGFGKSAKRRDYEWQSKAGE”, the “soluble on expression in E. coli” value is “soluble”.

In the case of “MLASMTGYAAVSREIPQGSLALELRSVNNRYLDLQFRLPDELRALESEMRDFLGSGLTRGKVDCRLTFSSYSNSYRQQRLNRDLLQDLQIMSDEIKSIFPAAGDFSVAEILRWPGVLDSDHISIDDLRTPCMALLQTALQELVSARKREGEKLHNLLLERVQRMRQLVLDLLPGLPAILASFQERLLNSLKAAGLDEKDERIRQEFTLFANRVDVDEELSRLQGHLNEFEHILLAGGVVGKRLDFLTQELNREANTLASKSVAREVTRIAVEMKVLIEQLREQIQNIE”, the “soluble on expression in E. coli” value is “not soluble”.

As for “MGSDKIHHHHHHMSPQEYCQNKAAASGSSFYYSFLFLPKAKREAITALYAFCREVDDIADDVQDVNVAQTKLNWWRSEIINLFEGKPQHPVTMALQSPVRELKLKQQHFLEIINGMQMDLEQNRYRDFEELELYCYRVASVVGLLSASIFGYSNPQTLQYALDLGMAFQLTNITRDVGEDGRRGRIYLPLDEISRFGVSEQDILQGKASDNMRQLLEFQVERAERYYEKALAELPLEDRKQQRTGLIMASIYRTLLKEIKRDDIQVVLNARVSLTPIRKLWLAWLTWIRN”, the “soluble on expression in E. coli” value was “not soluble”.

As for “MGSDKIHHHHHHMNTRSDVSKLIAQRKPRHALPRALYSNLAVYQQDLQQLWHKDWIFAGHTFELEKSGQYLSLQIGDYPVAVVRGADGQVRAFHNSCRHRGSKVCPEAKGKVAKLVCPYHKWTFELDGRLLFAGNMGDDFDKSQYNLKPVHCEIVNTYIYVCVAEAAPDFSAFREAVTPFLMPHNLEDCKVAFESNLIEKGNWKLVFENNRECYHCDGTHPELMNSFVENLSVAGVGGSDDPQLTAHWDRCEAAGLPSRLVMDNDGRFRITRIPLSSGAVSYTMDGKPAVAVRLDASGEADIGALLYFNYPSTWNHFLGDHALSFRVLPLGPNETLVTTKWIVKKTAVEGLDYDLDRLTKVWLATNDQDRTLVEGAQVGVNSPAYEPGPFSSKAENGVCQFDDWYCEIMLDRLGDDRAQASIKLKSVG”, the “soluble on expression in E. coli” value is listed as “not soluble”.

On to “MTHDNIDILVVDDDISHCTILQALLRGWGYNVALANSGRQALEQVREQVFDLVLCDVRMAEMDGIATLKEIKALNPAIPVLIMTAYSSVETAVEALKTGALDYLIKPLDFDNLQATLEKALAHTHSIDAETPAVTASQFGMVGKSPAMQHLLSEIALVAPSEATVLIHGDSGTGKELVARAIHASSARSEKPLVTLNCAALNESLLESELFGHEKGAFTGADKRREGRFVEADGGTLFLDEIGDISPMMQVRLLRAIQEREVQRVGSNQIISVDVRLIAATHRDLAAEVNAGRFRQDLYYRLNVVAIEVPSLRQRREDIPLLAGHFLQRFAERNRKAVKGFTPQAMDLLIHYDWPGNIRELENAVERAVVLLTGEYISERELPLAIASTPIPLGQSQDIQPLVEVEKEVILAALEKTGGNKTEAARQLGITRKTLLAKLSR”, for which the “soluble on expression in E. coli” value is given as “soluble”.

As to “MKTNREQEIYVERSFKPNNSTIQNLMDIERFILPHTSTSGVARLKMRVISWVGLQFYNY”, the “soluble on expression in E. coli” value is given as “soluble”.

As to “MLFYLISAIIFTTVAFAAPTPAPTLTVAEEMEAIFQNLTEEAQNDYFQILFDHTLTLAELDQKWDEWAEKHGIADKWAVYTSKWQARKEKFNETTVSVIERLPSTYKMLSEITANRNQTLSQVETALEELKEKFNLEVQLILILSKTLILNEEIVLGGGPIEVGNEVTGNSFRRMRDFKNKNRDVKSLLIPGPL”, the “soluble on expression in E. coli” value is listed as “not soluble”.

As for “MGSDKIHHHHHHMKKQWNEFVRDRMSEKNLKQEDIAEAIERTQGAVGHWLTGRRSPNFMEVAKMLNATGTDQVILNSDGTIEDIEFIGIPKKGLVKVIGEATMGTDGSVDIEEIHVGYIDIFTTDPKAFCLRVKGSSMEPRIHSGEFVLVEPQSPFSNGDDVFIRTKDGKNMIKILDYQKDGEYRFSSINNDHKPFNLAIDEVELVYYVAGILKKSRFVDLEP”, the “soluble on expression in E. coli” value was “not soluble”.

“YQWLPNIGSGEAGADWGLRLTSRDMGKFGLMWLNKGQYNGTKIVGEEWLNELRKSKFYSYEMGYGLHFWQVSNVENGVAAVGIGEQYIVAIPNKNAVIVTTAGNYETRSRPVLTLIQQLSSLL”: the “soluble on expression in E. coli” value is recorded as “not soluble”.

Regarding “MGSDKIHHHHHHMVKVLILGQGYVASTFVAGLEKLRKGEIEPYGVPLARELPIGFEDIKIVGSYDVDRAKIGKKLSEVVKQYWNDVDSLTSDPEIRKGVHLGSVRNLPIEAEGLEDSMTLKEAVDTLVKEWTELDPDVIVNTCTTEAFVPFGNKEDLLKAIENNDKERLTATQVYAYAAALYANKRGGAAFVNVIPTFIANDPAFVELAKENNLVVFGDDGATGATPFTADVLSHLAQRNRYVKDVAQFNIGGNMDFLALTDDGKNKSKEFTKSSIVKDILGYDAPHYIKPTGYLEPLGDKKFIAIHIEYVSFNGATDELMINGRINDSPALGGLLVDLVRLGKIALDRKEFGTVYPVNAFYMKNPGPAEEKNIPRIIAYEKMRIWAGLKPKWL”, the “soluble on expression in E. coli” value is “soluble”.

Turning to “SMSMKATRLAIPDVILFEPRVFGDDRGFFFESYNQRAFEEACGHPVSFVQDNHSRSARGVLRGLHYQIRQAQGKLVRATLGEVFDVAVDLRRGSPTFGQWVGERLSAENKRQMWIPAGFAHGFVVLSEYAEFLYKTTDFWAPEHERCIVWNDPELKIDWPLQDAPLLSEKDRQGKAFADADCFP”, the “soluble on expression in E. coli” value is “soluble”.

“MGSDKIHHHHHHMPKRIVKLEAGYNCRDLGGYVSQDGRTVKWGRLYRSGSLSHLTKADQAELARRKIVVDCDLRSRHEQDNFPDKLWPGSKLVDAHFYSESGDEEEEAEAAWEKYSSKLPKLSYLAMVYQQNLVVPRTGLVMREIFKEMLDLEDDEALLYHCSMGKDRTGMVSVIVLMALGLEDREILRDYLLSREYSRDWDEADENDRLGKQIAKMNQTQVSQTAFYGITETIRQMWGGFDRYFASLGFDQGDLDRLRDKFLE”: the “soluble on expression in E. coli” value is “not soluble”.

Take “MGSDKIHHHHHHMSVNETTNIKKNERSVLLPERHPNHELFICDVLEAIPKDDLASMEHPVFSLATKPDTRTLIYEHRDVKIQITPSVKGLATIFDKDLLIFCISQMIAKKNRGEPLSQNVRLHAYDLLIWTNRETSGDAYRRLIEAFERLRGTTIVTNIKADGEEITTGFGLIDSFKVVRHTATGRMSELEVRISDWMFKIIQGSQVLTLSRDYFRLRKPIERRIYEIARKHCGEQDEWRISIELLQKKTGASSHERAFKAMVRELVKCDHLPDYSVTLEDDMVIFYNRAGLSEKIPLTAFPQLNAETYNDARTVAPGYDVYYLEQEWRDMWVDTGMPLLHNPDKAFIAFCKSRAKRRPMGR”: the “soluble on expression in E. coli” value is recorded as “not soluble”.

Consider “MAGDPMSMHPALKYIQGYPQHIVEQVAQLIANDKLIPWFEQRYPERHDIQSEKALFDFTMALKNQYMKKTAPLSKVVYDGKIHLINNALGLHSYVSRVHGNKLKAKNEIRIANVFKQAPEPLLRMLVVHELAHLKEKEHNKAFYQLCCHMEPNYHQLELDARLYMMVLELKAGKALEHHHHHH”, for which the “soluble on expression in E. coli” value is on record as “not soluble”.

For “MPVGRKEQIVDCRAVMGLGEGGGLAQRGTFAEGLRNDVVVVAMSPGRRHITKPVCEITYGIREAGIQTSVLVLDAGGGIPSDAPQGSLGSTFGLKPEEAKQVNRHKLCVIHFGNVKSHIIYKARLFLKYVDIPTIIVCQTPVDMEDFAAIGIKTKNVMPLESKTEGKIVEIITGVIRGESAPQKKIDEIIESIKKHLGLEHHHHHH”, the “soluble on expression in E. coli” value is on record as “not soluble”.

For the sequence “MSLEEPFEIPPVEDTESVAKVDVRVDGIRDDRLSENVRIYLEAMDKNEADGSERHQYLLRENISKALRVFGYYNSQVYFDLQPRSGKKDLLIASVNVGEPVRIDSTDIEISGEAAEDEEFRKLDKNVPAKGAVLEHEIYDDYKSSLEKLARQRGYFDADFPVHELQVMPSTNQGWWHLVFNSGQRYHYGDISFHGSQIREDYLRNILKIQSGDPYLINDVSGMTSDYSSTNWFQSVLVKPTLHEDSKLVDLAVLLRPRKKNSMELGIGYGSDSGPHTQIGWTRPWINSRGHSVRSNLYISSPKQNFEATYKMPLLKNPLNYYYEFSTGFEHEDDTKTDTQSTAATVAALRFWNHPTGWQYSAGLRARYDNFTQADVDEKTLLIYPTATVSRSRISGGTFADRADTISVTVDLGRKMWASDVNFFRIRANAGWIKTFATNHRFLTRGDIGYLHTDEFNRIPPALRFFAGGDRSVRGYGYKKIAPKDSRNGKLVGGSRLATGTLEYQYQVVQDWWAATFFDAGFAANRFSSDELRYGAGVGVRWASPVGPIKFDIATPVRDKDDSKNIQFYIGLGTEEGHHHHHH”, the “soluble on expression in E. coli” value is “not soluble”.

As to “MLKGKYTKIEKVNGVEREYLITDKYGITIGRIFIVDLNKDNRFCMFRMKIYKQGKSINTYIKEILSVFMEFLFKSNDINKVNIIVDEEVSTQPFVELGFAFEGIINKSIIEKNVLKDEFLFGMDYKNYNSDRINVFKLYGKSITLKVLTPEDAENMLQYYIKNKEHLKPFEPEREESFYTFEAQKQMLIENYKQFINGEGTNFGIYKDAKLIGKIQISGTIYGVFKSAIIGYSIDKDYQGKGYMKDALRVAEAYAFNVMNLHRIEASALVDNLRSQNVLIGCGFEKLGINKNYLFINGRWQDHITFYKTNNN”, the “soluble on expression in E. coli” value is on record as “not soluble”.

For the sequence “MLGASRWRRTSAFSGIWRIPMSSNNSSRKVVTVDEQAFERTEDAGVDEDGFKVVDDKPEFRATVQQEKQAKVDSNHPDGIVQDFSHLPLAQEEKIRAREAELDHISAQAELGTQDGRAKRTRKVVTERRQRKRAERTPDRTDPRERLSRMELAKVNQEADRMAQRLRTGHSRAAVSRALAKRVAKGQDITKAVFDTMDALKAAPGAICPIEDVPDVQTDEVSIEGEVVQLWDASSRKIAQVGLVADDTGKIKFTSWRKSEPAFVQEGDTVRMRAVKKNWYEGRCSLAVTYDSMIVFPERDRRWWEELEHHHHHH”, the “soluble on expression in E. coli” value is given as “not soluble”.

Take “MGSDKIHHHHHHMTLRERRQKHKAQFRQEILDASRELFSQIGYERFSMRKLAAKIEHSPTTIYLYFRDKDDLLYSLCEELFAKLFQSYQDISRGENDPRQVLRLCLLRYIEFGLANPGHYKVAFFTSPVVYGSPTEFLQKDSMGRRTYFHILRTVEETMAAGMLRPMDADLLAQTVWVAAHGVVTSRIYSADFPMVDAVLQAETLVDGLLAGFSVKNFFGTNIYTVN”: the “soluble on expression in E. coli” value is listed as “not soluble”.

For the sequence “MKAQVEYIILPFKKRLDGFTYWQRELEPAIHPALKAYVKAENATGGVSSVMIFWEIARNTDHFCSDFKTDRDVRMFLTLYFWKYLCYFANIDFYTGQDKTEEILKGEAD”, the “soluble on expression in E. coli” value is listed as “not soluble”.

As to “KSIYLQSPYFIPDQSYINALKMAANSGVEVNLMIPCKPDHPFVYWATFSNAADLLDSGVNIYTYQNGFIHSKILMIDDEISSIGSANMDFRSFELNFEVNAFIYDEDIAKQLRQAFEKDIEQSKLLTKEVYDKR”, the “soluble on expression in E. coli” value was “not soluble”.

Consider “SCTLGRLVSPGPCPRPYLVITEQPKQRGMRFRYECEGRSAGSILGESSTEASKTQPAIELRDCGGLREVEVTACLVWKDWPHRVHPHSLVGKDCTDGVCRVRLRPHVSPRHSFNNLGIQCVRKKEIEAAIERKIQLGIDPYNAGSLKNHQEVDMNVVRICFQASYRDQQGHLHRMDPILSEPVYDKKSTNTSELRICRINKESGPCTGGEELYLLCDKVQKEDISVVFSTASWEGRADFSQADVHRQIAIVFKTPPYEDLEISEPVTVNVFLQRLTDGVCSEPLPFTYLPRDHDSY”, for which the “soluble on expression in E. coli” value is recorded as “soluble”.

Values taken from the DeepSol protein solubility set.
